The record followed here is US20240417446A1 (US Dept. of Health and Human Services, published 2024).

Experiment [1] has as its target T1, BSA (bovine, UniProt P02769).
T1 construct: also called bovine serum albumin
As to the kind of experiment: Protein ELISA, antigen coated, HRP-anti-Flag detection, OD450.

Experiment [2] addresses T2, SARS-CoV-2 spike protein on pseudovirus (SARS-CoV-2, UniProt P0DTC2 14-1273). As to the kind of experiment: cell-based or functional assay.
Experiment [3] has as its target T2, SARS-CoV-2 spike protein on pseudovirus. As to the kind of experiment: cell-based or functional assay. This is another data set of the same source.
In experiment [4] the target is T1, BSA. As to the kind of experiment: Protein ELISA, antigen coated, HRP-anti-Flag detection, absorbance 450 nm.
In experiment [5] the target is SARS-CoV-1 spike protein on pseudovirus (SARS-CoV-1, UniProt P59594 14-1255). Nature of the experiment: cell-based or functional assay.
In experiment [6] the target is T2, SARS-CoV-2 spike protein on pseudovirus. Nature of the experiment: cell-based or functional assay. The source holds these as a separate data set.
Experiment [7] concerns the target A431-SARS-CoV-S. As to the kind of experiment: Flow cytometry on A431 cells expressing SARS-CoV spike, anti-FLAG-APC detection.
In experiment [8] the target is T1, BSA. As to the kind of experiment: Protein ELISA, antigen coated, HRP-anti-Flag detection, absorbance 450 nm. The source holds these as a separate data set.

T1 sequence (P02769 25-607 limits assumed): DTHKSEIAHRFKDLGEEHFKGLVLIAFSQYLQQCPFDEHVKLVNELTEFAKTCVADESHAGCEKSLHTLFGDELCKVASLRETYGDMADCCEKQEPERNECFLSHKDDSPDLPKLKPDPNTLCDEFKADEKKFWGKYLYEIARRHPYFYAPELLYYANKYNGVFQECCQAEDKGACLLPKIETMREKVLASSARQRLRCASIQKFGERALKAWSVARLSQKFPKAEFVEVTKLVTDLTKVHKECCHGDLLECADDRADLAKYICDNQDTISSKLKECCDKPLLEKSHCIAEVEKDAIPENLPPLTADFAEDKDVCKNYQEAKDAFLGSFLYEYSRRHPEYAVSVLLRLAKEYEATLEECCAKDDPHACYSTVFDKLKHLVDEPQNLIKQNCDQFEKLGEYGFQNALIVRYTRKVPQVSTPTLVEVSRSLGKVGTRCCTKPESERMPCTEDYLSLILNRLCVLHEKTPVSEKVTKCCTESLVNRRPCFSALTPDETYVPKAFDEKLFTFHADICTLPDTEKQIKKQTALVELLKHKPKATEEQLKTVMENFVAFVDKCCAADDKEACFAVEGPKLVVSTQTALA

B1: NCI-CoV-CG2G2 (VHH)
VHH: AVQLVESGGGSVPPGGSLTLSCTVSDNIFRTYAVGWFRQAPEKRCQWIATLNADESTEYNVAVTGRFTISRDNSGRSVYLQMDNLNSEDTAIYYCASLARKWSCHDSWGRGTQVTVSS
Take B1: the binding result in experiment [1] is on record as “no binding (tested: 10 µg/ml)”. Besides, the “Neutralizing Power, SARS-CoV-2 Pseudovirus Neutralization Assay” value (“Neutralizing Power” for short) in experiment [2] was determined as 50%.

B2: NCI-CoV-S2A9 (VNAR)
VNAR: ARVDQTPRSVTKETGESLTINCVLRDASYALGRTCWYRKKSGSTNEESISKGGRYVETVNSGSKSFSLRINDLTVEDGGTYRCGVSTPWSCDYGPLCFYAACGDGTVVTVN
For B2, in experiment [3], the “IC50, neutralization of the original strain of SARS-CoV-2 pseudovirus” value stood at 1380 nM and the “IC50, pseudovirus neutralization (luciferase, 293-hACE2 cells)” value stood at 1290 nM. Besides, the “Neutralizing Power” value in experiment [2] is 90%. The binding result in experiment [4] is “no binding (tested: 10 µg/ml)”. Besides, the “IC50 for neutralizing pseudovirus” value in experiment [5] was 49300 nM. In addition, the “IC50 for neutralizing pseudovirus” value in experiment [6] amounted to 4340 nM.

B3: NCI-CoV-CGF10 (VHH)
VHH: AVQLVESGGGLVQPGGSLRLSCAASGFTFSSYGMHWVRQAPGKGLERVAGINWDGSNSYYTETVKGRFTISRDNAKNTAYLQMNSLKPEDTAMYYCRTLILDSDCDPGSTYRYAWGQGTQVTVSS
Turning to B3, in experiment [2], the “Neutralizing Power” value was 20%. The binding result in experiment [7] is “no binding”.

B4: NCI-CoV-S2G8 (VNAR)
VNAR: ARVDQTPQTITKETGESLTINCVLRDSNCPLSNTYWYRKKSGSTNEESISKGGRYVETVNSGSKSFSLRINDLTVEDSGTYRCKVRTHWSICWEMGLEPNYDVYGGGTVVTVN
For the molecule B4, the binding result in experiment [8] is “no binding (tested: 10 µg/ml)”; in experiment [7], “binds”. Moreover, the “Neutralizing Power” value in experiment [2] amounted to 50%.

B5: NCI-CoV-CLA2 (VHH)
VHH: QVQLVESGGGSVQPGGSLRLSCAVSGYTSSSYCFGWFRQAPGKDREGIIAMEPGNTYTAGAVKGRFTISRDNAKNMVYLQMNSLKPDDTAMYYCAASPYPGTWLNPDLFDTWGQGTQVTVSS
As to B5, in experiment [2], the “Neutralizing Power” value is 45%.

B6: NCI-CoV-S3A10 (VNAR)
VNAR: ARVDQTPRSVTKETGESLTINCVLRDASYALGSTCWYRKKSGSTNEESISKGGRYVETVNSGSKSFSLRINDLTVEDGGTYRCGRIQNTKAVLLPCVYAACGDGTVVTVN
In the case of B6, the “Neutralizing Power” value in experiment [2] came to 60%.

B7: NCI-CoV-CL3H4 (VHH)
VHH: DVQLVESGGGAVKPGGSLTLTCTVQEGSRNCVGWFRQGSGKDRQAVAMINGNGGTTNYDDRVKGRFQISRDGSLVHLRMNDVKLGDTDIYYCRQGQTYDCWGGTWTDSGWGQGTQVTVSS
Take B7: the “Neutralizing Power” value in experiment [2] was determined as 30%.

B8: NCI-CoV-S4A9 (VNAR)
VNAR: ARVDQTPRSVTKETGESLTINCVLRDASYALGSTCWYRKKSGSTNEESISKGGRYVETVNSGSKSFSLRINDLTVEDGGTYRCGVQSRWGAVPKLCSNYAACGDGTAVTVN
On to B8, for which, in experiment [2], the “Neutralizing Power” value came out at 30%.

B9: NCI-CoV-CG2D11 (VHH)
VHH: AVQLVDSGGGSVQAGGSLRLSCAGSAFTYSSYCMGWFRQAPGKEREAVAAINSGTSSTYYADSVKGRFTVSQDNANNTVYLLMISLKPEDTAIYICAALVAPDYDDYDVAAPDNFDYWGQGTQVTVSS
Regarding B9, the “Neutralizing Power” value in experiment [2] was found to be 40%.

B10: NCI-CoV-CGH3 (VHH)
VHH: AVQLVESGGGLVQPGGSLRLSCAASGFTFSSYAMGWVRQAPGKGLEWISAINSGGDIRYYADSVKGRFTISRDNAKNTLYLQMNSLKPEDTAVYYCATDDEILSYGLGTSFDYWGQGTQVTVSS
On to B10, for which the “Neutralizing Power” value in experiment [2] stood at 30%. Besides, the binding result in experiment [7] is “no binding”.
